Experimental findings from patent US20220241354A1, “COMPOSITION” (MORINAGA MILK INDUSTRY CO., LTD., priority 2019, published 2022) are described below.

In assay [1] the test system is Bifidobacterium infantis M-63. The assay can be described thus: Growth promoting effect on Bifidobacterium infantis M-63 (turbidity at 600 nm). Format: cell-based. The settings on record: 2′-FL 0.000 mass %, 37° C., 24 hours, n = 12. The procedure: (§1) 150 μL of a pre-culture solution of Bifidobacterium breve M-16V was added to 3 mL of MRS medium prepared in (1) (i), and was anaerobically cultured at 37° C. for 16 hours. After culturing, the cells were separated from the culture solution by centrifuging at 1500×g for 5 minutes. The culture solution was removed, and the cells were resuspended in 3 mL of glucose-free MRS medium prepared in (1) (ii).
(§2) The pre-culture solution prepared in (2) was added to the glucose-free MRS medium prepared in (1) (ii) to have a final concentration of 1 v/v %. Further, the 2′-fucosyllactose (2′-FL) solution and the lactoferrin solution prepared in (1) (iii) were respectively added to have the final concentrations shown in Table 2, and were dispensed into a 96-well plate at 200 μL/well.
(§3) Then, the cells were anaerobically cultured at 37° C. for 24 hours. After culturing, turbidity was measured at a wavelength of 600 nm using a microplate reader (Corona Electric) to evaluate the growth of bifidobacteria.
The same operation as in Example 1 was carried out except that the bifidobacteria were replaced with Bifidobacterium infantis M-63, and the growth was evaluated.

Assay [2] has as its system Bifidobacterium breve M-16V. The assay can be described thus: Growth promoting effect on Bifidobacterium breve M-16V (turbidity at 600 nm after anaerobic culture). Format: cell-based. The settings on record: 2′-FL 0.000 mass %, glucose-free MRS, 37° C., 24 hours, n = 4. The procedure: DifcoMRS (BD) was dissolved in purified water as described in a package insert and sterilized at 115° C. for 15 minutes. L-Cysteine hydrochloride (Wako) was dissolved in purified water, filtered and sterilized, and was aseptically added to MRS medium cooled to room temperature after sterilization to have a final concentration of 0.05% by mass.
A reagent was dissolved in purified water with the composition shown in Table 1 and sterilized at 115° C. for 15 minutes. L-Cysteine hydrochloride (Wako) was dissolved in purified water, filtered and sterilized, and was aseptically added to MRS medium cooled to room temperature after sterilization to have a final concentration of 0.05% by mass.
Human milk oligosaccharide (2′-fucosyllactose (2′-FL) (Carbosynth)) and lactoferrin (produced by Morinaga Milk Industry Co., Ltd., iron content 15.8 mg/100 g) were dissolved in purified water, respectively. They were filtered and sterilized after dissolution.
as §1, §2, §3

B1: lactoferrin (protein, UniProt P24627 20-708, looked up)
Lactotransferrin: APRKNVRWCTISQPEWFKCRRWQWRMKKLGAPSITCVRRAFALECIRAIAEKKADAVTLDGGMVFEAGRDPYKLRPVAAEIYGTKESPQTHYYAVAVVKKGSNFQLDQLQGRKSCHTGLGRSAGWIIPMGILRPYLSWTESLEPLQGAVAKFFSASCVPCIDRQAYPNLCQLCKGEGENQCACSSREPYFGYSGAFKCLQDGAGDVAFVKETTVFENLPEKADRDQYELLCLNNSRAPVDAFKECHLAQVPSHAVVARSVDGKEDLIWKLLSKAQEKFGKNKSRSFQLFGSPPGQRDLLFKDSALGFLRIPSKVDSALYLGSRYLTTLKNLRETAEEVKARYTRVVWCAVGPEEQKKCQQWSQQSGQNVTCATASTTDDCIVLVLKGEADALNLDGGYIYTAGKCGLVPVLAENRKSSKHSSLDCVLRPTEGYLAVAVVKKANEGLTWNSLKDKKSCHTAVDRTAGWNIPMGLIVNQTGSCAFDEFFSQSCAPGADPKSRLCALCAGDDQGLDKCVPNSKEKYYGYTGAFRCLAEDVGDVAFVKNDTVWENTNGESTADWAKNLNREDFRLLCLDGTRKPVTEAQSCHLAVAPNHAVVSRSDRAAHVKQVLLHQQALFGKNGKNCPDKFCLFKSETKNLLFNDNTECLAKLGGRPTYEEYLGTEYVTAIANLKKCSTSPLLEACAFLTR
notes: lactoferrin produced by Morinaga Milk Industry Co., Ltd., iron content 15.8 mg/100 g
Take B1: the OD600 in assay [1] (lactoferrin 0.500 mg/mL) worked out at 0.093; in assay [1] (lactoferrin 1.000 mg/mL), 0.101; in assay [2] (lactoferrin 0.031 mg/mL) it was 0.072; in assay [2] (lactoferrin 0.063 mg/mL), 0.074; in assay [2] (lactoferrin 0.125 mg/mL), 0.073; in assay [2] (lactoferrin 0.250 mg/mL) it was 0.074. In addition, the OD600 in assay [2] (lactoferrin 0.500 mg/mL) amounted to 0.075; in assay [2] (lactoferrin 1.000 mg/mL), 0.078.
